In patent publication US20230190752A1 (WASHINGTON UNIVERSITY, published 2023):

Target: T1, Valosin-Containing Protein phosphorylated at Ser784 (pSer^784-VCP), endogenous, from genotoxin-treated human … (human, UniProt P55072 2-806, phosphoserine at 784)
T1 construct: Endogenous protein in lysates or fixed cells (HeLa, MDA-MB-231, U2OS and others) after SN38, etoposide or HU; it is tied to the assayed protein only through that definition; also called DNA-damage-induced ~100-kDa protein
Test: co-IP, western blot (FIG. 15B, 14B)
Description: Antibody-bound proteins were analyzed by Western blot for K48-ubiquitin, total VCP and pSer784-VCP. Same amount of control IgG was used to bind the etoposide-treated HeLa samples to control for non-specific binding. […] Samples were analyzed by Western blot for K48-ubiquitin, NPL4, and UFD1. Total VCP bound by the antibodies were visualized by silver staining. […] YFP-FLAG was expressed as a control.
Ser784 Phosphorylation Decreases VCP Association with NPL4/UFD1 and Polyubiquitinated Proteins: To study the regulatory mechanism of Ser784 phosphorylation, the effects on the VCP interaction with protein substrates were first examined. Total VCP (by a pan-VCP antibody) or pSer784-VCP (by 3E4) from etoposide or HU-treated HeLa cell lysates were immunoprecipitated and immunoblotted for co-absorbed K48-polyubiquitinated proteins. […] To better separate pSer784-VCP from unphosphorylated VCP, sequential pull-downs were performed from etoposide-treated HeLa cell lysates to first deplete pSer784-VCP using 3E4 and subsequently capture the remaining unphosphorylated VCP by the pan-antibody. […] Based on the levels of VCP in the input and supernatants after each pull-down, it is evident that Ser784 is phosphorylated at high stoichiometry in response to DNA damage (>50% of total VCP after overnight etoposide treatment) (FIG. 15A).

T1 sequence (P55072 2-806 limits assumed): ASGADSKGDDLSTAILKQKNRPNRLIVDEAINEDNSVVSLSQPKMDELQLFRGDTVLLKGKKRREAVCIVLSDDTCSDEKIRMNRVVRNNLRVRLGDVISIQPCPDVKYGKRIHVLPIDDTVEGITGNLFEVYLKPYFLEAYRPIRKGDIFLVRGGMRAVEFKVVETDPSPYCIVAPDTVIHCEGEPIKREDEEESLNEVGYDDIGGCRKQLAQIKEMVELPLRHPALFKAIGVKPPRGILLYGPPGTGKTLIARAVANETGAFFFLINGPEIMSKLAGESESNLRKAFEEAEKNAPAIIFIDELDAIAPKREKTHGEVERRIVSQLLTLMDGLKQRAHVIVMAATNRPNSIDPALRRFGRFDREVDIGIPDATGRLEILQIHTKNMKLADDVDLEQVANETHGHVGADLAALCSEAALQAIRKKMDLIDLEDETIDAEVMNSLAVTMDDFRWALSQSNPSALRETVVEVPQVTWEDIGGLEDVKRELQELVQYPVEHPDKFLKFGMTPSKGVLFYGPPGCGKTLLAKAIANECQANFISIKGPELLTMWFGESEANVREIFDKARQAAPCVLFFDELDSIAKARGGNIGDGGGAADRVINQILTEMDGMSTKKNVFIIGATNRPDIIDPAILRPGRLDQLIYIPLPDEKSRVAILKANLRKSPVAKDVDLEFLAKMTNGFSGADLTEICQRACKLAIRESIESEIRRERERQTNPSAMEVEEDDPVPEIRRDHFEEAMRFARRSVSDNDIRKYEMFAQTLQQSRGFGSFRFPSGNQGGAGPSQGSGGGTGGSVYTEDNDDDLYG

B1: NPL4 (other, UniProt Q8TAT6 2-608, looked up)
chain: AESIIIRVQSPDGVKRITATKRETAATFLKKVAKEFGFQNNGFSVYINRNKTGEITASSNKSLNLLKIKHGDLLFLFPSSLAGPSSEMETSVPPGFKVFGAPNVVEDEIDQYLSKQDGKIYRSRDPQLCRHGPLGKCVHCVPLEPFDEDYLNHLEPPVKHMSFHAYIRKLTGGADKGKFVALENISCKIKSGCEGHLPWPNGICTKCQPSAITLNRQKYRHVDNIMFENHTVADRFLDFWRKTGNQHFGYLYGRYTEHKDIPLGIRAEVAAIYEPPQIGTQNSLELLEDPKAEVVDEIAAKLGLRKVGWIFTDLVSEDTRKGTVRYSRNKDTYFLSSEECITAGDFQNKHPNMCRLSPDGHFGSKFVTAVATGGPDNQVHFEGYQVSNQCMALVRDECLLPCKDAPELGYAKESSSEQYVPDVFYKDVDKFGNEITQLARPLPVEYLIIDITTTFPKDPVYTFSISQNPFPIENRDVLGETQDFHSLATYLSQNTSSVFLDTISDFHLLLFLVTNEVMPLQDSISLLLEAVRTRNEELAQTWKRSEQWATIEQLCSTVGGQLPGLHEYGAVGGSTHTATAAMWACQHCTFMNQPGTGHCEMCSLPRT
notes: Detected by western blot in VCP co-immunoprecipitates; also called cofactor NPL4
binding result: binds
